# Experimental data as given in patent publication US20200102387A1 (CELGENE, published 2020).
# Changes are numbered by the printed parent chain. In names and notes the source's numbering stands. Where two headings read alike, the source gives them in different places.
# B1: SIRPAB-11-K322A (antibody, human IgG1, kappa)
# light: DIQMTQSPSSVSASVGDRVTITCRASQGISSWLAWYQQKPGKAPKLLIYAASNLQSGVPSRFSGSGSGTDFTLTISSLQPEDFATYYCQQGASFPITFGGGTKVEIKRTVAAPSVFIFPPSDEQLKSGTASVVCLLNNFYPREAKVQWKVDNALQSGNSQESVTEQDSKDSTYSLSSTLTLSKADYEKHKVYACEVTHQGLSSPVTKSFNRGEC
# heavy: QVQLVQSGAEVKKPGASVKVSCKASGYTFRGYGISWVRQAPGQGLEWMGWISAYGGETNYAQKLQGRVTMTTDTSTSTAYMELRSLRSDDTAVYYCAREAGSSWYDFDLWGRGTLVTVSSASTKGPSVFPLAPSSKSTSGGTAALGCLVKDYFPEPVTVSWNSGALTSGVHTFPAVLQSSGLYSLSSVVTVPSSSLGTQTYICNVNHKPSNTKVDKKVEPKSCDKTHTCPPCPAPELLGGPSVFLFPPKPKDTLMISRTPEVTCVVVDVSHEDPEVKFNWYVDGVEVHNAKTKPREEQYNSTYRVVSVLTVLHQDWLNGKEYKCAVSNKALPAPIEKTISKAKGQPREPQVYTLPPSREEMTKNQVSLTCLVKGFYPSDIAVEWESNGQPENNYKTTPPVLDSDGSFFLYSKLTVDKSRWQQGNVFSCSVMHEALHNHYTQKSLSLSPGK
# notes: human IgG1 with K322A (EU numbering); also called SIRPAB-11-IgG1-K322A; SIRPAB-11-K322A-AlexaFluor647
# Assays:
# [1] = biological target: T1, cynomolgus SIRPα on cells (cynomolgus, UniProt P78324 31-373 (human entry)); experiment: flow cytometry, cyno SIRPα-CHO cells, anti-human IgG-AF647 detection
# T1 construct: also called cyno SIRPα-CHO; Cyno SIRPα-CHO-K1; not shown: Transmembrane and cytoplasmic region of cynomolgus SIRPα
# T1 chain: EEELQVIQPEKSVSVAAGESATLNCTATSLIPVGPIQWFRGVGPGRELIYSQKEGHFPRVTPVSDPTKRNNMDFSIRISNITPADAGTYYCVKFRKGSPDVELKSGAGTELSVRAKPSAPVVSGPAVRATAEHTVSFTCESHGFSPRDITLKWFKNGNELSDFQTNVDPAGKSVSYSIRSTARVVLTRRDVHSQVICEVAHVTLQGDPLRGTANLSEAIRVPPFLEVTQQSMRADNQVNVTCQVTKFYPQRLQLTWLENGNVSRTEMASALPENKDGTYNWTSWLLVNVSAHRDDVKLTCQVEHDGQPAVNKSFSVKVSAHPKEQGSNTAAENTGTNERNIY
# [2] = biological target: T2, human SIRPα on cells (human, UniProt P78324 31-504); experiment: cell-based or functional assay
# [3] = biological target: T3, FcγR3A (CD16aV158) (human, UniProt P08637 17-254); experiment: cell binding, FcγR-engineered HEK293 cells
# T3 construct: whole, on cells
# [4] = biological target: T4, FcγR2B (human, UniProt P31994 43-310); experiment: cell binding, FcγR-engineered HEK293 cells
# T4 construct: whole, on cells
# T4 sequence (looked up): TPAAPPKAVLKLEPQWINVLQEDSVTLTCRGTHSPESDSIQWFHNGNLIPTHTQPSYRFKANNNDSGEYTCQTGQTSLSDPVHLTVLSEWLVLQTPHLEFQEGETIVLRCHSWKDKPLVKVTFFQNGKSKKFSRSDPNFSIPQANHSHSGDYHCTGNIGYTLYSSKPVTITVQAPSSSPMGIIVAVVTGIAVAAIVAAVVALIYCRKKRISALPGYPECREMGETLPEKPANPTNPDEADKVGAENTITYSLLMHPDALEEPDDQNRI
# [5] = biological target: T5, FcγR1 (CD64) (human, UniProt P12314 16-374); experiment: cell binding, FcγR-engineered HEK293 cells
# T5 construct: whole, on cells
# [6] = biological target: T3, FcγR3A (CD16aV158); experiment: cell binding, FcγR-engineered HEK293 cells; remark: listed apart in the source
# [7] = biological target: T6, FcγR3A (CD16aF158) (human, UniProt P08637 17-254); experiment: cell binding, FcγR-engineered HEK293 cells
# T6 construct: whole, on cells
# [8] = biological target: T7, FcγR2A (CD32aR131) (human, UniProt P12318 34-317); experiment: cell binding, FcγR-engineered HEK293 cells
# T7 construct: whole, on cells
# T7 sequence (looked up): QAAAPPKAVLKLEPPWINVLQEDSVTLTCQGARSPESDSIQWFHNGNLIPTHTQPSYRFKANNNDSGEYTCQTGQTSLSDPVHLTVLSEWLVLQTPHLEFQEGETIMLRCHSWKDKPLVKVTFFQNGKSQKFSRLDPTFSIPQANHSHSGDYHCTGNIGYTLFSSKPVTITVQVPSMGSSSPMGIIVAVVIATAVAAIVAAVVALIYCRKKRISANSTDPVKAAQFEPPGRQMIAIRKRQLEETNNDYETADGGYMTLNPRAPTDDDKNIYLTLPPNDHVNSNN
# [9] = biological target: T4, FcγR2B; experiment: cell binding, FcγR-engineered HEK293 cells; remark: listed apart in the source
# [10] = biological target: T8, FcγR2A (CD32aH131) (human, UniProt P12318 34-317); experiment: cell binding, FcγR-engineered HEK293 cells
# T8 construct: whole, on cells
# T8 sequence (looked up): T7 sequence (looked up) with R134H
# [11] = biological target: T5, FcγR1 (CD64); experiment: cell binding, FcγR-engineered HEK293 cells; remark: listed apart in the source
# [12] = biological target: T9, SIRPγ extracellular domain (human, UniProt Q9P1W8 29-360); experiment: SPR Biacore T200, antibody captured on Protein A chip
# T9 construct: also called hSIRPγ - ECD
# [13] = biological target: T10, SIRPβ extracellular domain (human, UniProt O00241 30-371); experiment: as above
# T10 construct: also called hSIRPβ - ECD
# T10 chain: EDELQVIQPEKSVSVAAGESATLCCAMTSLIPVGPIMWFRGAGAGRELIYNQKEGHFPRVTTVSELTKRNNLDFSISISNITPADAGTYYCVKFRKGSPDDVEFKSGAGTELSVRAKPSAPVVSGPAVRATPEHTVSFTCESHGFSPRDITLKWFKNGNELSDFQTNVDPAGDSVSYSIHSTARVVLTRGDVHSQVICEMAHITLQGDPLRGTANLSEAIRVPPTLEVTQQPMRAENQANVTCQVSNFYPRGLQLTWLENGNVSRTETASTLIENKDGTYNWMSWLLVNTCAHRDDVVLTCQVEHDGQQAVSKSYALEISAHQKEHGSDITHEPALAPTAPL
# [14] = biological target: T2, human SIRPα on cells; experiment: cell-based or functional assay; remark: listed apart in the source
# T9 sequence (Q9P1W8 29-360 limits assumed): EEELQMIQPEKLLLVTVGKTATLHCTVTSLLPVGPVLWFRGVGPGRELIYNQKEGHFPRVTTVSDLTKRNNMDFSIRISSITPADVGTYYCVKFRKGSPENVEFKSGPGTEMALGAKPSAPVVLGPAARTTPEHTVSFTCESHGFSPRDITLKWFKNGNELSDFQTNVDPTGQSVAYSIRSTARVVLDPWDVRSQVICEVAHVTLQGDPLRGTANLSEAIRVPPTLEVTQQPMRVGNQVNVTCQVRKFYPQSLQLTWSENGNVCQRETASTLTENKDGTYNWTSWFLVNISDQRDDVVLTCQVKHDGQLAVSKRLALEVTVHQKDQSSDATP
# T5 sequence (P12314 16-374): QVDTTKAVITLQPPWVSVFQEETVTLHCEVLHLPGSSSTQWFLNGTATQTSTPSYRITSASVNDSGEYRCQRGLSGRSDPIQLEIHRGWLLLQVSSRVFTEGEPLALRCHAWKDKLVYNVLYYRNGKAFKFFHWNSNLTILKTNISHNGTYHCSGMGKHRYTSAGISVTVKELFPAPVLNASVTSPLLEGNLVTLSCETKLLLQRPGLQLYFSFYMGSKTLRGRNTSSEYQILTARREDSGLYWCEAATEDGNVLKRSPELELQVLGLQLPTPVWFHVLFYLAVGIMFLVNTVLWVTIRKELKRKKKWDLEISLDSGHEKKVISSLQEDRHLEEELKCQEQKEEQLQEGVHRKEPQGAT
# T3 sequence (P08637 17-254 F176V): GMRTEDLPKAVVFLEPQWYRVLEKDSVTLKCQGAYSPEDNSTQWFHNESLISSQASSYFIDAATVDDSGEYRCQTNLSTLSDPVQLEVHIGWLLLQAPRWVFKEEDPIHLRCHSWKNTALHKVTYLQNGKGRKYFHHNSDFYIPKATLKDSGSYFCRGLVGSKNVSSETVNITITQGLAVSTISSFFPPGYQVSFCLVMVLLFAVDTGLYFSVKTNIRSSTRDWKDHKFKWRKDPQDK
# T6 sequence (P08637 17-254): as the sequence (P08637 17-254 F176V) above, with V160F counted along it
binder,measurement,setting,value
B1,EC50,[1],1.9 nM
same,EC50 of percent phagocytic macrophages; FaDu; donor 358; 0.2 nM cetuximab,[2],0.075 nM
same,EC50 of percent phagocytic macrophages; FaDu; donor 358; 1 nM cetuximab,[2],0.049 nM
same,EC50 of percent phagocytic macrophages; GP2d; donor 338; 0.2 nM cetuximab,[2],0.657 nM
same,EC50 of percent phagocytic macrophages; GP2d; donor 338; 1 nM cetuximab,[2],0.495 nM
same,EC50 of percent phagocytic macrophages; GP2d; donor 358; 0.2 nM cetuximab,[2],16.2 nM
same,EC50 of percent phagocytic macrophages; GP2d; donor 358; 1 nM cetuximab,[2],0.247 nM
same,EC50 of percent phagocytic macrophages; GP2d; mean; 0.2 nM cetuximab,[2],8.43 nM
same,EC50 of percent phagocytic macrophages; GP2d; mean; 1 nM cetuximab,[2],0.371 nM
same,EC50 of percent phagocytic macrophages; GP5d; donor 338; 0.2 nM cetuximab,[2],0.543 nM
same,EC50 of percent phagocytic macrophages; GP5d; donor 338; 1 nM cetuximab,[2],0.714 nM
same,EC50 of percent phagocytic macrophages; GP5d; donor 358; 0.2 nM cetuximab,[2],0.886 nM
same,EC50 of percent phagocytic macrophages; GP5d; donor 358; 1 nM cetuximab,[2],0.162 nM
same,EC50 of percent phagocytic macrophages; GP5d; mean; 0.2 nM cetuximab,[2],0.715 nM
same,EC50 of percent phagocytic macrophages; GP5d; mean; 1 nM cetuximab,[2],0.438 nM
same,EC50 of percent phagocytic macrophages; SW480; donor 338; 0.2 nM cetuximab,[2],0.2 nM
same,EC50 of percent phagocytic macrophages; SW480; donor 338; 1 nM cetuximab,[2],0.461 nM
same,EC50 of percent phagocytic macrophages; SW480; donor 358; 0.2 nM cetuximab,[2],2.06 nM
same,EC50 of percent phagocytic macrophages; SW480; donor 358; 1 nM cetuximab,[2],0.102 nM
same,EC50 of percent phagocytic macrophages; SW480; mean; 0.2 nM cetuximab,[2],1.13 nM
same,EC50 of percent phagocytic macrophages; SW480; mean; 1 nM cetuximab,[2],0.282 nM
same,EC50,[3],142 nM
same,EC50,[4],2710 nM
same,EC50,[5],0.79 nM
same,EC50,[6],795 nM
same,EC50,[7],1200 nM
same,EC50,[8],194 nM
same,EC50,[9],2480 nM
same,EC50,[10],200 nM
same,EC50,[11],0.79 nM
same,Kd,[12],0.0101 nM
same,koff,[12],0.000188 s⁻¹
same,kon,[12],1.71e+07 M⁻¹ s⁻¹
same,Kd,[13],12.1 nM
same,koff,[13],0.000614 s⁻¹
same,kon,[13],50600 M⁻¹ s⁻¹
same,mean EC50 (n=2 donors) of percent phagocytic macrophages; OCI-LY3; with 0.1 nM rituximab,[14],0.11 nM
